This experiment has as its target T1, soluble human FcRn complexed with β2-microglobulin (human, UniProt P61769 21-119, limits assumed).
T1 construct: also called hFcRn
The experiment can be described thus: Biacore SPR, pH 7.0.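 Further: test antibodies captured on a Protein L chip with human FcRn flowed over as analyte, KD obtained as the ratio of dissociation to association rate constants.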 Background: In SPR one partner is held on a chip, and binding of the other changes the refractive index at the surface.

T1 sequence (chain, as listed by the source limits assumed, chain 1 of 2): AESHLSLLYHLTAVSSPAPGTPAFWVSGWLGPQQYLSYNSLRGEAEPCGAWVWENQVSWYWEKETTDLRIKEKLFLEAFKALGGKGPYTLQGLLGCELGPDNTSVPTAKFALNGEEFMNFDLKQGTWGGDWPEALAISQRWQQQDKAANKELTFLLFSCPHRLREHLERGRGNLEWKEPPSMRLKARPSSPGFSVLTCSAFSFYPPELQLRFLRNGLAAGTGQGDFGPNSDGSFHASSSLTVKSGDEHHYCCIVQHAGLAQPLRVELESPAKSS
T1 sequence (P61769 21-119 limits assumed, chain 2 of 2): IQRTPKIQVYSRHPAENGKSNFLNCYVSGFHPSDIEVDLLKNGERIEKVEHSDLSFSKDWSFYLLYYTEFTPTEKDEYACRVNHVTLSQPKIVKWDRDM

B1: IgG1-F781 (antibody)
heavy: QVQLQESGPGLVKPSETLSLTCAVSGHSISHDHAWSWVRQPPGEGLEWIGFISYSGITNYNPSLQGRVTISRDNSKNTLYLQMNSLRAEDTAVYYCARSLARTTAMDYWGEGTLVTVSSASTKGPSVFPLAPSSKSTSGGTAALGCLVKDYFPEPVTVSWNSGALTSGVHTFPAVLQSSGLYSLSSVVTVPSSSLGTQTYICNVNHKPSNTKVDKKVEPKSCDKTHTCPPCPAPELLGGPSVFLFPPKPKDTLYISRTPEVTCVVVDVSHEDPEVKFNWYVDGVEVHNAKTKPREEQYNSTYRVVSVLTVLHQDWLNGKEYKCKVSNKALPAPIEKTISKAKGQPREPQVYTLPPSRDELTKNQVSLTCLVKGFYPADIAVEWESNGQPENNYKTTPPVLDSDGSFFLYSKLTVDKSRWQQGNVFSCSVMHEALHYHYTQKSLSLSP
light: not shown
notes: EU numbering; copies: 2 + 2
The molecule B1 displayed a Kd of 370 nM.

B2: IgG1-F790 (antibody)
heavy: QVQLQESGPGLVKPSETLSLTCAVSGHSISHDHAWSWVRQPPGEGLEWIGFISYSGITNYNPSLQGRVTISRDNSKNTLYLQMNSLRAEDTAVYYCARSLARTTAMDYWGEGTLVTVSSASTKGPSVFPLAPSSKSTSGGTAALGCLVKDYFPEPVTVSWNSGALTSGVHTFPAVLQSSGLYSLSSVVTVPSSSLGTQTYICNVNHKPSNTKVDKKVEPKSCDKTHTCPPCPAPELLGGPSVFLFPPKPKDTLYISRTPEVTCVVVDVSHEDPEVKFNWYVDGVEVHNAKTKPREEQYNSTYRVVSVLTVLHQDWLEGKEYKCKVSNKALPAPIEKTISKAKGQPREPQVYTLPPSRDELTKNQVSLTCLVKGFYPSDIAVEWESNGQPENNYKTTPPVLDSDGSFFLYSKLTVDKSRWQQGNVFSCSVMHEALHYHYTQKSLSLSP
light: not shown
notes: EU numbering; copies: 2 + 2
B2: binding was put at a Kd of 270 nM. The Kd values of the last two molecules are within 1.5-fold of each other.

B3: IgG1-F782 (antibody)
heavy: QVQLQESGPGLVKPSETLSLTCAVSGHSISHDHAWSWVRQPPGEGLEWIGFISYSGITNYNPSLQGRVTISRDNSKNTLYLQMNSLRAEDTAVYYCARSLARTTAMDYWGEGTLVTVSSASTKGPSVFPLAPSSKSTSGGTAALGCLVKDYFPEPVTVSWNSGALTSGVHTFPAVLQSSGLYSLSSVVTVPSSSLGTQTYICNVNHKPSNTKVDKKVEPKSCDKTHTCPPCPAPELLGGPSVFLFPPKPKDTLYISRTPEVTCVVVDVSHEDPEVKFNWYVDGVEVHNAKTKPREEQYNSTYRVVSVLTVLHQDWLNGKEYKCKVSNKALPAPIEKTISKAKGQPREPQVYTLPPSRDELTKNQVSLTCLVKGFYPSDIAVEWESNGQPENNAKTTPPVLDSDGSFFLYSKLTVDKSRWQQGNVFSCSVMHEALHYHYTQKSLSLSP
light: not shown
notes: EU numbering; copies: 2 + 2
B3: binding was characterised by a dissociation constant (Kd) of 350 nM.

B4: IgG1-F792 (antibody)
heavy: QVQLQESGPGLVKPSETLSLTCAVSGHSISHDHAWSWVRQPPGEGLEWIGFISYSGITNYNPSLQGRVTISRDNSKNTLYLQMNSLRAEDTAVYYCARSLARTTAMDYWGEGTLVTVSSASTKGPSVFPLAPSSKSTSGGTAALGCLVKDYFPEPVTVSWNSGALTSGVHTFPAVLQSSGLYSLSSVVTVPSSSLGTQTYICNVNHKPSNTKVDKKVEPKSCDKTHTCPPCPAPELLGGPSVFLFPPKPKDTLYISRTPEVTCVVVDVSHEDPEVKFNWYVDGVEVHNAKTKPREEQYNSTYRVVSVLTVLHQDWLGGKEYKCKVSNKALPAPIEKTISKAKGQPREPQVYTLPPSRDELTKNQVSLTCLVKGFYPSDIAVEWESNGQPENNYKTTPPVLDSDGSFFLYSKLTVDKSRWQQGNVFSCSVMHEALHYHYTQKSLSLSP
light: not shown
notes: EU numbering; copies: 2 + 2
B4 showed a Kd of 440 nM.

B5: IgG1-F793 (antibody)
heavy: QVQLQESGPGLVKPSETLSLTCAVSGHSISHDHAWSWVRQPPGEGLEWIGFISYSGITNYNPSLQGRVTISRDNSKNTLYLQMNSLRAEDTAVYYCARSLARTTAMDYWGEGTLVTVSSASTKGPSVFPLAPSSKSTSGGTAALGCLVKDYFPEPVTVSWNSGALTSGVHTFPAVLQSSGLYSLSSVVTVPSSSLGTQTYICNVNHKPSNTKVDKKVEPKSCDKTHTCPPCPAPELLGGPSVFLFPPKPKDTLYISRTPEVTCVVVDVSHEDPEVKFNWYVDGVEVHNAKTKPREEQYNSTYRVVSVLTVLHQDWLIGKEYKCKVSNKALPAPIEKTISKAKGQPREPQVYTLPPSRDELTKNQVSLTCLVKGFYPSDIAVEWESNGQPENNYKTTPPVLDSDGSFFLYSKLTVDKSRWQQGNVFSCSVMHEALHYHYTQKSLSLSP
light: not shown
notes: EU numbering; copies: 2 + 2
On to B5, for which binding was characterised by a dissociation constant (Kd) of 330 nM. This Kd and that of the molecule before are within 1.5-fold of each other.

B6: IgG1-F785 (antibody)
heavy: QVQLQESGPGLVKPSETLSLTCAVSGHSISHDHAWSWVRQPPGEGLEWIGFISYSGITNYNPSLQGRVTISRDNSKNTLYLQMNSLRAEDTAVYYCARSLARTTAMDYWGEGTLVTVSSASTKGPSVFPLAPSSKSTSGGTAALGCLVKDYFPEPVTVSWNSGALTSGVHTFPAVLQSSGLYSLSSVVTVPSSSLGTQTYICNVNHKPSNTKVDKKVEPKSCDKTHTCPPCPAPELLGGPSVFLFPPKPKDTLYISRTPEVTCVVVDVSHEDPEVKFNWYVDGVEVHNAKTKPREEQYNSTYRVVSVLTVHHQDWLNGKEYKCKVSNKALPAPIEKTISKAKGQPREPQVYTLPPSRDELTKNQVSLTCLVKGFYPSDIAVEWESNGQPENNYKTTPPVLDSDGSFFLYSKLTVDKSRWQQGNVFSCSVMHEALHYHYTQKSLSLSP
light: not shown
notes: EU numbering; copies: 2 + 2
B6 came in with a Kd of 740 nM. This Kd lies about 2.2-fold higher than the previous one.

B7: IgG1-F783 (antibody)
heavy: QVQLQESGPGLVKPSETLSLTCAVSGHSISHDHAWSWVRQPPGEGLEWIGFISYSGITNYNPSLQGRVTISRDNSKNTLYLQMNSLRAEDTAVYYCARSLARTTAMDYWGEGTLVTVSSASTKGPSVFPLAPSSKSTSGGTAALGCLVKDYFPEPVTVSWNSGALTSGVHTFPAVLQSSGLYSLSSVVTVPSSSLGTQTYICNVNHKPSNTKVDKKVEPKSCDKTHTCPPCPAPELLGGPSVFLFPPKPKDTLYISRTPEVTCVVVDVSHEDPEVKFNWYVDGVEVHNAKTKPREEQYNSTYRVVSVLTVLHQDWLNGKEYKCKVSNKALPAPIEKTISKAKGQPREPQVYTLPPSRDELTKNQVSLTCLVKGFYPSDIAVEWESNGQPENNYKTTPPVLDSDGSFFLYSKLTVAKSRWQQGNVFSCSVMHEALHYHYTQKSLSLSP
light: not shown
notes: EU numbering; copies: 2 + 2
Turning to B7, the Kd was 400 nM.

B8: IgG1-F786 (antibody)
heavy: QVQLQESGPGLVKPSETLSLTCAVSGHSISHDHAWSWVRQPPGEGLEWIGFISYSGITNYNPSLQGRVTISRDNSKNTLYLQMNSLRAEDTAVYYCARSLARTTAMDYWGEGTLVTVSSASTKGPSVFPLAPSSKSTSGGTAALGCLVKDYFPEPVTVSWNSGALTSGVHTFPAVLQSSGLYSLSSVVTVPSSSLGTQTYICNVNHKPSNTKVDKKVEPKSCDKTHTCPPCPAPELLGGPSVFLFPPKPKDTLYITRTPEVTCVVVDVSHEDPEVKFNWYVDGVEVHEAKTKPREEQYNSTYRVVSVLQVLHADWLNGKEYKCKVSNKALPAPIEKTISKAKGQPREPQVYTLPPSRDELTKNQVSLTCLVKGFYPSDIAVEWESNGQPENNYKTTPPVLDSDGSFFLYSKLTVDKSRWQQGNVFSCSVMHEALHYHYTQKSLSLSP
light: not shown
notes: EU numbering; copies: 2 + 2
Regarding B8, binding was characterised by a dissociation constant (Kd) of 28 nM.

B9: IgG1-F784 (antibody)
heavy: QVQLQESGPGLVKPSETLSLTCAVSGHSISHDHAWSWVRQPPGEGLEWIGFISYSGITNYNPSLQGRVTISRDNSKNTLYLQMNSLRAEDTAVYYCARSLARTTAMDYWGEGTLVTVSSASTKGPSVFPLAPSSKSTSGGTAALGCLVKDYFPEPVTVSWNSGALTSGVHTFPAVLQSSGLYSLSSVVTVPSSSLGTQTYICNVNHKPSNTKVDKKVEPKSCDKTHTCPPCPAPELLGGPSVFLFPPKPKDTLYISRTPEVTCVVVDVSHEDPEVKFNWYVDGVEVHNAKTKPREEQYNSTYRVVSVLTVAHQDWLNGKEYKCKVSNKALPAPIEKTISKAKGQPREPQVYTLPPSRDELTKNQVSLTCLVKGFYPSDIAVEWESNGQPENNYKTTPPVLDSDGSFFLYSKLTVDKSRWQQGNVFSCSVMHEALHYHYTQKSLSLSP
light: not shown
notes: EU numbering; copies: 2 + 2
The molecule B9 came in with a dissociation constant (Kd) of 500 nM.

B10: IgG1-F788 (antibody)
heavy: QVQLQESGPGLVKPSETLSLTCAVSGHSISHDHAWSWVRQPPGEGLEWIGFISYSGITNYNPSLQGRVTISRDNSKNTLYLQMNSLRAEDTAVYYCARSLARTTAMDYWGEGTLVTVSSASTKGPSVFPLAPSSKSTSGGTAALGCLVKDYFPEPVTVSWNSGALTSGVHTFPAVLQSSGLYSLSSVVTVPSSSLGTQTYICNVNHKPSNTKVDKKVEPKSCDKTHTCPPCPAPELLGGPSVFLFPPKPKDTLYISRTPEVTCVVVDVSHEDPEVKFNWYVDGVEVHNAKTKPREEQYNSTYRVVSVLTVLHQDWLAGKEYKCKVSNKALPAPIEKTISKAKGQPREPQVYTLPPSRDELTKNQVSLTCLVKGFYPSDIAVEWESNGQPENNYKTTPPVLDSDGSFFLYSKLTVDKSRWQQGNVFSCSVMHEALHYHYTQKSLSLSP
light: not shown
notes: EU numbering; copies: 2 + 2
As to B10, the affinity, expressed as Kd, was 410 nM.

B11: IgG1-F789 (antibody)
heavy: QVQLQESGPGLVKPSETLSLTCAVSGHSISHDHAWSWVRQPPGEGLEWIGFISYSGITNYNPSLQGRVTISRDNSKNTLYLQMNSLRAEDTAVYYCARSLARTTAMDYWGEGTLVTVSSASTKGPSVFPLAPSSKSTSGGTAALGCLVKDYFPEPVTVSWNSGALTSGVHTFPAVLQSSGLYSLSSVVTVPSSSLGTQTYICNVNHKPSNTKVDKKVEPKSCDKTHTCPPCPAPELLGGPSVFLFPPKPKDTLYISRTPEVTCVVVDVSHEDPEVKFNWYVDGVEVHNAKTKPREEQYNSTYRVVSVLTVLHQDWLDGKEYKCKVSNKALPAPIEKTISKAKGQPREPQVYTLPPSRDELTKNQVSLTCLVKGFYPSDIAVEWESNGQPENNYKTTPPVLDSDGSFFLYSKLTVDKSRWQQGNVFSCSVMHEALHYHYTQKSLSLSP
light: not shown
notes: EU numbering; copies: 2 + 2
B11 returned a dissociation constant Kd of 150 nM.

B12: IgG1-F787 (antibody)
heavy: QVQLQESGPGLVKPSETLSLTCAVSGHSISHDHAWSWVRQPPGEGLEWIGFISYSGITNYNPSLQGRVTISRDNSKNTLYLQMNSLRAEDTAVYYCARSLARTTAMDYWGEGTLVTVSSASTKGPSVFPLAPSSKSTSGGTAALGCLVKDYFPEPVTVSWNSGALTSGVHTFPAVLQSSGLYSLSSVVTVPSSSLGTQTYICNVNHKPSNTKVDKKVEPKSCDKTHTCPPCPAPELLGGPSVFLFPPKPKDTLYITRTPEVTCVVVDVSHEDPEVKFNWYVDGVEVHNAKTKPREEQYNSTYRVVSVLQVEHADWLNGKEYKCKVSNKALPAPIEKTISKAKGQPREPQVYTLPPSRDELTKNQVSLTCLVKGFYPSDIAVEWESNGQPENNYKTTPPVLDSDGSFFLYSKLTVDKSRWQQGNVFSCSVMHEALHYHYTQKSLSLSP
light: not shown
notes: EU numbering; copies: 2 + 2
On to B12, for which the affinity, expressed as Kd, was 88 nM.

By Kd is commonly meant the equilibrium constant for the complex coming apart. Higher therefore signals a looser complex.

These data come from US20200199241A1 (Chugai, published 2020).
